Assay results from the DeepSol protein solubility set.

assay: soluble on expression in E. coli; label from the status in PepcDB or PDB records

Soluble on expression in E. coli, soluble:
MDYTPHTEEEIREMLRRVGAASLEDLFAHLPKEILSPPIDLPEPLPEWKVLEELRRLAAQNLPAHKAFLGGGVRSHHVPPVVQALAARGEFLTAYTPYQPEVSQGVLQATFEYQTMIAELAGLEIANASMYDGATALAEGVLLALRETGRMGVLVSQGVHPEYRAVLRAYLEAVGAKLLTLPLEGGRTPLPEVGEEVGAVVVQNPNFLGALEDLGPFAEAAHGAGALFVAVADPLSLGVLKPPGAYGADIAVGDGQSLGLPMGFGGPHFGFLATKKAFVRQLPGRLVSETVDVEGRRGFILTLQAREQYIRRAKAKSNITTNAQLTALMGAMYLAALGPEGLREVALKSVEMAHKLHALLLEVPGVRPFTPKPFFNEFALALPKDPEAVRRALAERGFHGATPVPREYGENLALFAATELHEEEDLLALREALKEVLA
AEGGFLEDAKTDLVLRNYYFNRDFRDHDAGKSLVDEWAQGFILKFSSGYTPGTVGVGLDAIGLFGVKLNSGRGTSNSELLPLHDDGRAADNYGRVGVAAKLRVSASELKIGEMLPDIPLLRYDDGRLLPQTFRGFAVVSRELPGLALQAGRFDAVSLRNSADMQDLSAWSAPTQKSDGFNYAGAEYRFNRERTQLGLWHGQLEDVYRQSYANLLHKQRVGDWTLGANLGLFVDRDDGAARAGEIDSHTVYGLFSAGIGLHTFYLGLQKVGGDSGWQSVYGSSGRSMGNDMFNGNFTNADERSWQVRYDYDFVGLGWPGLIGMVRYGHGSNATTKAGSGGKEWERDVELGYTVQSGPLARLNVRLNHASNRRSFNSDFDQTRLVVSYPLSW
MALFSPYALGATLYMPATRDDIVDVVFGEKIPELRSLVVCLEDAVALIDVDTALLNLRQVLTRIHDRGGRPANGPLLFVRPRDAAMARILNDWPLMAHVDGFVVPKLSLKSLTSWEEAVTNPALALMPTLETPEVFNPTAMVELGQALKASLHERIIALRIGGNDLMGCLGLRRNPAMTLYSTPMGYVIPMLAGVMGAQGFALTAPVFEQLATPDILEQELALDITNGLVGKTAIHPSQVNIIQNALRVSLEDMNSARMILNSVAPAVFKYNDAMCEPATHYKWATHIMERAKWHGVLPTPASIMDASIRLAEAVSLEHHHHHH
MAHHHHHHMRRSVIRTRKEFLERKQHERVHEAIHARKEQFRSAVETATPLPGHLKKDALALKKFTELDDAQTRNLTTTVDDEYANAGQEDPHVLVTTSRNASQKLLEFAKEVRLIVPNAVRMNRGNLSVHQLMDAARKENYTDVLVLQESQGVPDSLIVSHLPLGPTVTFTIHNLVARHDIDGVGTMSEQYPHLVFENFSTKLGIRIKDVLRYLFPVPKADASRVLTFDNENDFISFRHHTFKKEKGKKQVELTEVGPRFELTPYRIVLGTLEMDDAETEWVLQPYMNTAKKRRLL
MIERLLEIKKIRADRADKAVQRQEYRVANVAAELQKAERSVADYHVWRQEEEERRFAKAKQQTVLLKELETLRQEIALLREREAELKQRVAEVKVTLEQERTLLKQKQQEALQAHKTKEKFVQLQQQEIAEQSRQQQYQEELEQEEFRTVDIIAAALEHHHHHH
MLKQVEIFTDGSCLGNPGPGGYGAILRYRGREKTFSAGYTRTTNNRMELMAAIVALEALKEHCEVILSTDSQYVRQGITQWIHNWKKRGWKTADKKPVKNVDLWQRLDAALGQHQIKWEWVKGHAGHPENERCNELARAAAMNPTLEDTGYQVEV
MSIFNGIKEEQMDILREVGNIGAGHSASAMAQLLNRKIDMEVPFAKLLSFDELVDFFGGADVPVASIFLRMEGDLTGSMFFIMPFFQAEQFIRELIGNPDFDIEDLGEDHMSSSALHELGNILAGSYLTALADLTKLQLYPSVPEVSLDMFGAVISEGLMELSQVGEHAIVVDTSIFDQSHQQELKAHMFMLPDYDSFEKLFVALGASL
MSDKISFLPPEPIQLLDEDSTEPELDIDSQQENEGPISASNSNDSTSHSNDCGATITRTRPRRSSSINANFSFQKAHVSDCTIVNGDHGTKFAVWRITVFLEPNLKAFAAKRESYKIQTYKRYSDFVRLRENLLTRIKTAKPEKLNCLQIPHLPPSVQWYSSWKYQEVNLNKDWLAKRQRGLEYFLNHIILNSSLVEMTKDILIQFLEPSKRVA

Soluble on expression in E. coli, not soluble:
MNFGACPADIEDDEVVASFNVYASPALVNQAHIFQYPLRRRQRPYEATEIKLFSTSGTVAEESEALLAQGKGSSVLQPGSRLTMKCSLDTFGSPSFRPLPEFAPDMLGQMELQRHHTFNYTLQSQPFLPQSNYVLGYITLEGIHLTPVSTIQQFTPALSIPESSTGAVRVTEAFCSQSNSTAMPGFAAADRIQRELRRQRSRVLNGEADTAQEIQFFRDDSVESSAMRSRLCSSTLERITGNLNAASEPAEVENSLFPPEILQSGGISGGDEAHPSMIIHRFANCKSVAEQTNQLLQRCHILTLQRLQNIVVPYTSNEVVKTMSTVPEAQLVEALKSCAVWLHGVWVSRYCDQFRGSVAALREVILARFYQSEDGSVARADFNAWITTSAARRSIKEILATVAVLNTDEPDPSKRRWRLKYVPEDRAAREANLRDFKAKFAAEEASQHEAWRRRCAQVMAHIPYINAGRPVSQLCLRPRSTPPTTGTAASATLPYGSPNAAQSIAPSVSSMTSGHSGSGVTASASPFSSPAPGADLGFKDADIAPIRHYIRELFAEHGVINKQRVKDLVIKAQEARYPHATKAMLSTALQQCLDKFTDATWILKSAGEPIVDYYRPAILYVVLELRQFEMAALMKRLEEVVRARGLTSPPESAALRGRIGGASGTLEAVVQRVVAEVAEFKAGGRLWHIKGGNLMNE
MIQLGGYKPRLSLHNSLFRALVSKQGGILNDQLKQAEFIFHNVVTTGLEVQKDIYSGLIWLHSCQDEVDIGRINSLREEMKKAGFQESKEVVVSLLRAYAKEGGVEEVERTWLELLDLDCGIPSQAFVYKIEAYSKVGDFAKAMEIFREMEKHIGGATMSGYHKIIEVLCKVQQVELVETLMKEFEESGKKPLLPSFIEIAKMYFDLGLHEKLEMAFVQCLEKCQPSQPIYNIYLDSLTKIGNLEKAGDVFNEMKNNGTINVSARSCNSLLKGYLDCGKQVQAERIYDLMRMKKYEIEPPLMEKLDYILSLKKKEVKKRPFSMKLSKDQREVLVGLLLGGLQIESDKEKKSHMIKFEFRENSQAHLVLKQNIHDQFREWLHPLSNFQEDIIPFEFYSVPHSYFGFYAEHYWPKGQPEIPKLIHRWLSPHSLAYWYMYSGVKTSSGDIILRLKGSLEGVEKVVKALQAKSMECRVKKKGKVFWIGLQGTNSALFWKLIEPHVLENLKEHLKPASESLDNVKEAEEQSINFKSNSDHSDDCVNSEAHFY
MKVDGIQAEMRAMMVEATNTTPTGTGAKVGADFNDLLTKAINNVNSLQKSSGDLQTRFDRGDADVSLSDVMIARNKSSVAFEATVQIRNKLVEAYKDLMNMPV
MRINFEKANSNHINIIFSWLKEPFIQEFWDNTQAHKDDILNFINGRTEPSSYADGKYVYWIASGNGHPFAMLMTIQETSEDEIDDIKLINLSKTGHSYGIDYMIGDKNYFGIGYGARTLIEFIDFFIKEVDPKADTFLIDPASDNPRAKHVYIKAGFEYVADFLMSGDVSGAGKLHHLLIKRIGLIK
MNELQAYHLSRNQFCPNLFFLAMNNVAQTDTPQQYDLRILRALRRITRSIALHSRQLAAVSHITAPQLMCLRAVIAGGPMTATAISREIHVSPSTVVGILDRLEDKGLIRRERGREDRRIVFVTATEGGRTLAAEAPSPLQKHLADGLNALPELEQATITLALERIVALMEQEGHAVEAAGEGSPPILEMPTGGAPPESGLVV
GFIELHAHLAFQKVPADIVLRHGVTTLRDVGGPVHPPYGGEGSLRVLTSGRIITAPHGYPIVTMGARDLAIPVASEAEAREAVRHLVGEGAVIIKIALEPGSEAGAPWSSHHDHAHHDAAHTASAVTHHHAHAASHDQSAWPMLPEPIVKAVVDEAHRHQRKVSAHVAEPSGVQVALNAGVDEWAHMPCNPIPEPLLKQARAQNVTIIGTLDTLSKCSGIAHNTMVWTELGGELLYGTEIAHPDIPWGIDAQELMYLMHLGKMKLLDALGAATAKAGRYLGIPMLGTIQPGAPADLIAIRGNPEQQLKRLEYPDLVISGGHIVVNHFSSLP
